# Results taken from the supplement of paper PMC10567573.
# B1: ZC3H15 (parent)
# chain: RKADFKAGKALVISGREVFEFRPE
# B2: HESX1 (parent)
# chain: ENKPSTCSFSIERILGLDQKKDCV
# Variants of: B1
# Assay: protein stability index of a GFP-peptide fusion (GPS, HEK-293T) (PSI 1-6); higher = more stable
# Settings: c terminus: a fixed tail appended
# 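Further: lentivirally expressed fusions sorted by FACS into six bins by GFP to DsRed ratio, PSI derived from sequencing read proportions per bin multiplied by bin number.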
row,Variant,protein stability index
1,F21W,2.85
2,F21T,3.73
3,F21S,3.91
4,F21E,4.46
5,F21H,3.57
6,F21L,2.82
7,F21G,4.2
8,F21N,3.73
9,F21Q,4.23
10,F21M,3.29
11,F21Y,3.21
12,F21V,3.5
13,F21R,3.48
14,F21I,2.68
15,F21P,3.69
16,F21A,3.05
17,F21C,3.78
18,F21D,4.04
19,F21K,3.58
20,E20K,2.68
21,E20N,2.81
22,E20P,2.62
23,E20A,2.5
24,E20D,3.37
25,E20V,2.34

row,Variant,protein stability index
1,E20F,1.96
2,E20I,1.71
3,E20C,2.68
4,E20Q,2.74
5,E20T,2.73
6,E20Y,1.66
7,E20S,2.1
8,E20M,2.27
9,E20W,1.61
10,E20R,3.14
11,E20H,2.13
12,E20L,2.51
13,E20G,3.1
14,V18S,3.34
15,V18N,3.61
16,V18M,2.8
17,V18Y,2.74
18,V18Q,3.46
19,V18L,2.72
20,V18R,3.58
21,V18P,3.05
22,V18W,2.86
23,V18T,3.32
24,E24F,1.85
25,E24C,2.22

row,Variant,protein stability index
1,E24H,2.18
2,E24V,2
3,E24Q,2.84
4,E24R,2.43
5,E24L,1.9
6,E24S,2.78
7,E24K,2.31
8,E24D,3.11
9,E24Y,2.17
10,E24I,1.94
11,E24P,2.44
12,E24T,2.52
13,E24A,2.69
14,E24W,1.84
15,E24G,2.12
16,E24N,2.84
17,E24M,2
18,P23R,2.73
19,P23K,3.35
20,P23E,3.38
21,P23I,1.35
22,P23M,2.09
23,P23F,2.27
24,P23N,3.53
25,P23L,1.61

row,Variant,protein stability index
1,P23G,3.18
2,P23V,1.94
3,P23H,2.62
4,P23S,3.44
5,P23W,1.24
6,P23Y,1.9
7,P23D,3.82
8,P23Q,3.31
9,P23T,3.17
10,P23C,2.42
11,R22M,3.54
12,R22F,2.98
13,R22W,2.39
14,R22N,3.07
15,R22A,3
16,R22T,3.03
17,R22K,3.24
18,R22S,3.29
19,R22C,2.24
20,R22P,3.25
21,R22G,3.4
22,R22E,3.53
23,R22V,2.78
24,R22D,3.72
25,R22I,2.81

row,Variant,protein stability index
1,R22H,2.72
2,R22Y,2.84
3,R22Q,3.83
4,R22L,2.35
5,F19Q,3.63
6,F19Y,2.75
7,F19H,4.13
8,F19K,3.47
9,F19N,4.05
10,F19C,3.76
11,F19L,3.33
12,F19G,3.7
13,F19V,3.25
14,F19T,3.7
15,F19I,3.51
16,F19M,3.43
17,F19P,4.08
18,F19A,4.01
19,F19W,2.43
20,F19S,3.51
21,F19D,4.68
22,F19E,4.23
23,F19R,4.24

# Variants of: B2
# Assay: as above
# Settings: c terminus: a fixed tail appended
row,Variant,protein stability index
1,F9K,4.3
2,F9L,4.07
3,F9T,4.45
4,F9A,3.86
5,F9M,2.79
6,F9E,4.41
7,F9Y,3.52
8,F9S,3.97
9,F9P,5.09
10,F9G,4.43
11,F9H,4.15
12,F9W,2.42
13,F9C,3.43
14,F9D,4.24
15,F9N,4.2
16,F9I,3.43
17,F9V,4.09
18,F9Q,4.3
19,F9R,3.88
20,E1L,2.13
21,E1V,2.32
22,E1N,2.77
23,E1F,1.92
24,E1G,2.32

row,Variant,protein stability index
1,E1C,2.27
2,E1M,2.45
3,E1A,2.61
4,E1I,2.68
5,E1W,2.37
6,E1H,2.73
7,E1R,2.79
8,E1Y,1.95
9,E1P,2.79
10,E1T,2.85
11,E1Q,2.28
12,E1K,1.68
13,E1D,3.29
14,E1S,2.37
15,T6N,3.06
16,T6D,3.96
17,T6Q,3.12
18,T6W,2.53
19,T6E,3.39
20,T6S,3.12
21,T6R,2
22,T6M,2.37
23,T6I,2.9
24,T6F,2.85

row,Variant,protein stability index
1,T6K,2.41
2,T6C,2.43
3,T6V,2.71
4,T6Y,3.16
5,T6G,3.5
6,T6H,3.24
7,T6L,3.14
8,T6P,2.77
9,T6A,3.46
10,S10E,3.01
11,S10L,3.05
12,S10Y,2.8
13,S10F,2.84
14,S10W,2.76
15,S10R,2.71
16,S10A,2.86
17,S10M,2.48
18,S10G,3.27
19,S10I,2.62
20,S10T,4.07
21,S10P,4.28
22,S10Q,3.26
23,S10K,3.77
24,S10D,4

row,Variant,protein stability index
1,S10H,3.5
2,S10C,2.38
3,S10N,3.27
4,S10V,2.29
5,S5D,3.16
6,S5E,3.77
7,S5A,2.94
8,S5I,3.02
9,S5R,2.56
10,S5W,2.13
11,S5N,3.09
12,S5M,2.75
13,S5Y,2.54
14,S5Q,2.89
15,S5T,3.42
16,S5P,3.48
17,S5H,2.81
18,S5K,2.85
19,S5G,3.31
20,S5C,2.71
21,S5L,2.18
22,S5F,1.96
23,S5V,2.5
24,S8V,3.1

row,Variant,protein stability index
1,S8H,2.7
2,S8M,3.73
3,S8G,2.51
4,S8F,3.04
5,S8Q,3.23
6,S8N,3.07
7,S8K,2.94
8,S8R,2.79
9,S8T,3.52
10,S8C,4.28
11,S8I,2.83
12,S8D,3.88
13,S8E,4.18
14,S8W,2.14
15,S8Y,2.66
16,S8L,3.07
17,S8A,3.46
18,S8P,4.2
19,I11S,4.21
20,I11P,5.12
21,I11R,4.73
22,I11A,3.27
23,I11Y,3.13
24,I11M,3.42

row,Variant,protein stability index
1,I11W,2.77
2,I11T,3.52
3,I11K,4
4,I11E,5.05
5,I11D,4.04
6,I11H,3.7
7,I11F,3.06
8,I11C,3.27
9,I11V,2.91
10,I11L,3.58
11,I11G,3.13
12,I11Q,3.97
13,I11N,4.63
14,P4I,3.02
15,P4C,2.42
16,P4Y,1.94
17,P4L,2.86
18,P4H,2.52
19,P4S,2.71
20,P4N,2.79
21,P4R,3.41
22,P4V,3.35
23,P4W,2.54
24,P4T,3.67

row,Variant,protein stability index
1,P4Q,3.18
2,P4A,2.99
3,P4M,2.99
4,P4F,2.62
5,P4G,2.84
6,P4K,2.7
7,P4D,3.86
8,E12F,1.63
9,E12C,2.45
10,E12D,3.8
11,K3W,2.93
12,K3C,2.78
13,K3L,2.35
14,K3D,3.66
15,K3N,3.04
16,K3I,2.84
17,K3E,3.85
18,K3M,2.92
19,K3A,3.59
20,K3V,2.71
21,K3R,2.58
22,K3Q,3.41
23,K3P,3.17
24,K3G,3.1

row,Variant,protein stability index
1,K3T,2.53
2,K3F,2.16
3,K3Y,2.83
4,K3H,3.42
5,K3S,3.84
6,N2W,1.91
7,N2G,2.49
8,N2Y,1.77
9,N2A,2.15
10,N2S,2.87
11,N2T,2.91
12,N2D,2.94
13,N2M,2.53
14,N2F,1.97
15,N2E,3.52
16,N2P,2.82
17,N2L,2.79
18,N2C,2.57
19,N2K,3.37
20,N2I,2.32
21,N2Q,2.93
22,N2V,2.88
23,N2H,2.57
24,N2R,2.88

row,Variant,protein stability index
1,C7I,1.84
2,C7K,3.52
3,C7L,2.94
4,C7A,3.58
5,C7R,3.92
6,C7Q,3.96
7,C7Y,3.43
8,C7S,3.98
9,C7G,3.87
10,C7F,3.11
11,C7E,4.23
12,C7H,3.91
13,C7W,2.33
14,C7N,4.05
15,C7V,3.17
16,C7P,4.01
17,C7T,3.74
18,C7D,4.13
19,C7M,3.32
